In patent publication US9700619B2, “Combination drug therapy for the treatment of solid tumors” (Duke University, priority 2011, dated 2017):

Legend:
[1] = system: patients with advanced solid tumors; experiment: Phase I study of ganitumab plus everolimus: DLT, MTD/RPTD and adverse events (NCI Common Toxicity Criteria version 4.0); type: in vivo; conditions: subjects on G+E, summary
Description: The maximum tolerated doses/recommended phase II dose for the doublet combination, ganitumab (G) plus everolimus (E) followed by an expanded cohort was evaluated to better understand the safety and tolerability profile of this drug combination.
The primary objective of this study was to determine the maximum tolerated dose (MTD) and Recommended Phase II Dose (RPTD) of G+E in patients with advanced solid tumors. Secondary objectives were to describe any toxicities associated with this regimen and to preliminarily describe clinical activity (progression-free survival (PFS)), overall survival (OS), partial response (PR), complete response (CR) or stable disease (SD)>6 months.
For dose escalation, eligible patients had advanced solid tumors with adequate organ function and no increased risk for class-related toxicities. G was given intravenously, and E was orally administered; cycle length was 28 days. Stage I was a dose escalation; cohort size: 3-6 patients; Stage II was an expansion at MTD with a cohort size of 20 patients.
An intermediate dose of E at 5 mg five times weekly was added to better maximize dose intensity. Dose limiting toxicity (DLT) was assessed in cycle 1.
AEs were graded according to the NCI Common Toxicity Criteria version 4.0. Efficacy was assessed every 2 cycles with computed tomography (CT) using Response Evaluation Criteria in Solid Tumors (RECIST 1.1) guidelines.

skin = experiment: Dermapathology evaluation of cutaneous biopsies from study subjects; type: in vivo, human
Text: Dose escalation was complete with 17 subjects evaluable for DLT toxicity and 16 evaluable for efficacy (see Table 2). […] One non-treatment-related death was due to disease progression. […] Twelve subjects have available efficacy data; 4 subjects have not yet been restaged. Two subjects with refractory NSCLC achieved a complete response. Six additional subjects had stable disease as best response.

Substance: ganitumab
- Skin toxicities [1]: consistent with hypersensitivity to Ganitumab
- Finding in the third cutaneous biopsy (skin; interpreted as part of the skin toxicity to G): spongiotic dermatitis with mixed inflammatory infiltrate with abundant eosinophils
- Cutaneous biopsies revealing hypersensitivity reaction in the form of superficial perivascular dermatitis (skin; mild perivascular lymphocytic infiltrate with eosinophils, subjects on G+E): 2 out of 3
